# Test results as given in patent US20030060599A1, “Tripeptide amides that block viral infectivity and methods of use thereof” (published 2003).
# Ends that are not written are not given here.
# B1: Pro-Lys-Glu-NH2 (peptide)
# peptide: Pro-Lys-Glu-NH2
# B2: Glu-Pro-Phe-NH2 (peptide)
# peptide: Glu-Pro-Phe-NH2
# B3: Thr-Leu-Glu-NH2 (peptide)
# peptide: Thr-Leu-Glu-NH2
# B4: Arg-Val-Leu-NH2 (peptide)
# peptide: Arg-Val-Leu-NH2
# Molecular target: major capsid protein (p24) of HIV-1 (HIV-1 (SF-2), UniProt P03349)
# Experiment: cell-based or functional assay
row,Binder,"antiviral inhibitory activity as determined by p24 production and RT activity in the culture supernatants (H9 cells, HIV-1 SF-2, 100 µM peptide) [%]"
1,B1,> 80
2,B2,> 80
3,B3,> 80
4,B4,> 80
